{"source": "IntAct's records for PubMed 17167417", "parents": {"B1": {"name": "DNA replication regulator DPB11 (Saccharomyces cerevisiae), P47027 (parent)", "chain": "MKPFQGITFCPTAINNEILAKKISKKIIKLGGIFSKDLTRQVNVLVVGSTTNTNKFKFAVKHRFDIIFIDIQAIDDIYQLWLSGENILPDSNTATMTGSTYEMLKILYRRFSFKYLHNFNIFIGRITDTNITSIDSLVRSIKKLGCSSYNYQNFVIKDTSSHNDDDDQGQNGQISIFVTDTLLGARVNAAIEQNIPIVHFKWILDCQKRSALLPYDPYYLLPNIKDLPYDSIGSNSCDCWDKINTTFPTNIDAQSSLQRQQSSSTLTPSLPKTSSLLNKFKPKGEKIWDKAMSLQQHSKTNFSVLGQSPLSINNKQEDLSDNSTLIFKNCAFIIHHIFPGNHRSILTKIVVQNGGKIETSYLSGIYDHSYYIIPSNKALDSFNDLPEIIDDNDGIVTEFFIERCLYYQKLLHPIDLWSKPFLSTIEFQVSSSSKLLHHEFSSSPFLNVTITGFSGVELLHLTKVLNLLKPMGINYVEYLNKSTDILLINLAALPSIPKTHPLWSNEFSDLFTQFCINNNNDDPGDNNRKDFQNNSILRNSMKRKIEYIKKFHSIPVVTPAFIFKLLSAASGENNEIFLNNIKWCIICPRGHKDDFKCKIKKPYYTSISSEKKYQNNDPKIDKTILLKRNNSSLSEHSMKDTKNELLQKIRETDSGRKKRSVSSSIMDVSSERQMPDTKRIKLESLPKNFVPKQIKRTTSWGTIMSENVPTEQPTAISNPEEIPRTEEVSHTQVTYGSIQDKKRTASLEKPMRRQTRNQTKELDS", "partner": "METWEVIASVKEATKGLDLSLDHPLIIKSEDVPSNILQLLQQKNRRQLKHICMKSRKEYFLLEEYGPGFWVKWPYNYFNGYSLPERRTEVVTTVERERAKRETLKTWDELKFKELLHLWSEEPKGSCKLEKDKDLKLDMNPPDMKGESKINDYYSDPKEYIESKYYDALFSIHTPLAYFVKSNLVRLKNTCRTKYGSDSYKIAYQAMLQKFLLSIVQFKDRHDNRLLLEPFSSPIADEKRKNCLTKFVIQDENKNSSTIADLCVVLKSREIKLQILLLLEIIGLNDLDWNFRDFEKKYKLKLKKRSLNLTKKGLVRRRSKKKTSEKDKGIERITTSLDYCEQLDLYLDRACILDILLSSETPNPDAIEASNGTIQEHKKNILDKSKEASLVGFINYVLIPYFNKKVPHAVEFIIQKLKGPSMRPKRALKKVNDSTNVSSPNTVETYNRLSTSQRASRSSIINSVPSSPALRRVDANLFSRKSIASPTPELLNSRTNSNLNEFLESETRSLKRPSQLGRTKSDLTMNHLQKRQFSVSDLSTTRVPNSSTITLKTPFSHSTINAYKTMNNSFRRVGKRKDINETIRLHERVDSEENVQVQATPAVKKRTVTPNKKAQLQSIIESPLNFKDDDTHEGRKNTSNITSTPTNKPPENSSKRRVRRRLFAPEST"}}, "data": [{"variants_of": "B1", "settings": "with sld3_yeast SLD3, P53135", "values": [{"variant": "K55D;F56P", "effect of a mutation on the interaction": "disrupting interaction strength"}]}]}
